Laboratory results as given in patent publication US20220323561A1 (ENTEROME S A, published 2022).

Experiments:
[1] = target: T1, HLA-A*0201 molecule expressed on human T2 cells (human); experiment: T2 cells (HLA-A*0201), peptide at 10 µM, anti-HLA-A2 flow cytometry
T1 construct: also called HLA-A2
Description: (§1) T2 cells (5.104 cells per well) are incubated with decreasing concentrations of peptides from 100 μM to 0.1 μM (4 points: 100 μM, 10 μM, 1 μM, 0.1 μM) in serum-free medium (TexMacs) supplemented with […] of β2 Microglobulin at 37° C. for 16 hours. Cells are then washed two times and marked with the anti-HLA-A2 antibody coupled to PE (clone BB7.2, BD Pharmagen).
(§2) The relative affinity is then determined as follows: […]

[2] = target: T1, HLA-A*0201 molecule expressed on human …; experiment: T2 cells (HLA-A*0201), peptide at 100 µM, anti-HLA-A2 flow cytometry
Description: as §1, §2

[3] = target: T1, HLA-A*0201 molecule expressed on human …; experiment: T2 cells (HLA-A*0201), peptide at 0.1 µM, anti-HLA-A2 flow cytometry
Description: as §1, §2

[4] = target: T1, HLA-A*0201 molecule expressed on human …; experiment: T2 cells (HLA-A*0201), peptide at 1 µM, anti-HLA-A2 flow cytometry
Description: as §1, §2

[5] = target: T1, HLA-A*0201 molecule expressed on human …; experiment: T2 cells (HLA-A*0201), peptide titration, anti-HLA-A2 flow cytometry
Description: as §1, §2

[6] = target: T1, HLA-A*0201 molecule expressed on human …; experiment: T2 cells (HLA-A*0201), anti-HLA-A2 flow cytometry

Binder	mean relative fluorescence intensity (HIV peptide = 100) [1]	mean relative fluorescence intensity (HIV peptide = 100) [2]	mean relative fluorescence intensity (HIV peptide = 100) [3]	mean relative fluorescence intensity (HIV peptide = 100) [4]	concentration of peptide that induces 20% of HLA-A2 expression [5]	in vitro binding affinity (relative to HIV pol reference peptide) [5]	binding result [6]
YVFEHPELL [CD22-B11]	124 % of HIV pol 589-597 at 100 µM	141 % of HIV pol 589-597 at 100 µM	6.4 % of HIV pol 589-597 at 100 µM	60.5 % of HIV pol 589-597 at 100 µM	0.2 µM	0.5 ratio to HIV pol 589-597	–
ILNSLSLLL [MS4A1-B41]	–	–	–	–	2.45 µM	0.3 ratio to HIV pol 589-597	–
IMNSLSLFA [MS4A1-H4]	2.6 % of HIV pol 589-597 at 100 µM	13.4 % of HIV pol 589-597 at 100 µM	0 % of HIV pol 589-597 at 100 µM	0.3 % of HIV pol 589-597 at 100 µM	–	–	–
TLAYLIFCL [CD19-H6]	39.6 % of HIV pol 589-597 at 100 µM	–	0 % of HIV pol 589-597 at 100 µM	4.1 % of HIV pol 589-597 at 100 µM	4.98 µM	0.5 ratio to HIV pol 589-597	–
AMNSLSLYI [MS4A1-B4]	13.1 % of HIV pol 589-597 at 100 µM	115 % of HIV pol 589-597 at 100 µM	0.5 % of HIV pol 589-597 at 100 µM	1.9 % of HIV pol 589-597 at 100 µM	12.3 µM	2.1 ratio to HIV pol 589-597	–
PLPGLLFGA [TNFRSF13C-H3]	0 % of HIV pol 589-597 at 100 µM	8.4 % of HIV pol 589-597 at 100 µM	0 % of HIV pol 589-597 at 100 µM	0 % of HIV pol 589-597 at 100 µM	–	–	–
LMIPAGIYA [MS4A1-H3]	35.7 % of HIV pol 589-597 at 100 µM	92.6 % of HIV pol 589-597 at 100 µM	0 % of HIV pol 589-597 at 100 µM	0.9 % of HIV pol 589-597 at 100 µM	4.83 µM	0.5 ratio to HIV pol 589-597	–
YLAYLIFEL [CD19-B6]	52.5 % of HIV pol 589-597 at 100 µM	–	0 % of HIV pol 589-597 at 100 µM	5.4 % of HIV pol 589-597 at 100 µM	3.76 µM	0.4 ratio to HIV pol 589-597	–
ILPGLLFGL [TNFRSF13C-B31]	71.9 % of HIV pol 589-597 at 100 µM	104 % of HIV pol 589-597 at 100 µM	0 % of HIV pol 589-597 at 100 µM	1.5 % of HIV pol 589-597 at 100 µM	1.6 µM	0.4 ratio to HIV pol 589-597	–
YILGGLLMV [MS4A1-B12]	7.6 % of HIV pol 589-597 at 100 µM	42 % of HIV pol 589-597 at 100 µM	1.2 % of HIV pol 589-597 at 100 µM	1.1 % of HIV pol 589-597 at 100 µM	31.2 µM	3.5 ratio to HIV pol 589-597	–
YLFLGILSL [MS4A1-B5]	29.8 % of HIV pol 589-597 at 100 µM	–	0 % of HIV pol 589-597 at 100 µM	0.2 % of HIV pol 589-597 at 100 µM	6.77 µM	0.7 ratio to HIV pol 589-597	–
GLAFVPLQI [CD37-H1]	27 % of HIV pol 589-597 at 100 µM	153 % of HIV pol 589-597 at 100 µM	2 % of HIV pol 589-597 at 100 µM	0 % of HIV pol 589-597 at 100 µM	7.35 µM	17.5 ratio to HIV pol 589-597	–
SLVGILHLQ [CD19-H1]	1 % of HIV pol 589-597 at 100 µM	0 % of HIV pol 589-597 at 100 µM	1 % of HIV pol 589-597 at 100 µM	0 % of HIV pol 589-597 at 100 µM	–	–	–
FLLFLTPME [CD19-H2]	7 % of HIV pol 589-597 at 100 µM	7 % of HIV pol 589-597 at 100 µM	–	3 % of HIV pol 589-597 at 100 µM	–	–	–
FMPGLLFGA [TNFRSF13C-B33]	15.5 % of HIV pol 589-597 at 100 µM	99.6 % of HIV pol 589-597 at 100 µM	0 % of HIV pol 589-597 at 100 µM	1.3 % of HIV pol 589-597 at 100 µM	13.2 µM	3.5 ratio to HIV pol 589-597	–
IALGGLLMI [MS4A1-H1]	1.9 % of HIV pol 589-597 at 100 µM	–	0 % of HIV pol 589-597 at 100 µM	0.7 % of HIV pol 589-597 at 100 µM	–	–	–
LMFGAPALV [TNFRSF13C-B1]	37 % of HIV pol 589-597 at 100 µM	90 % of HIV pol 589-597 at 100 µM	1 % of HIV pol 589-597 at 100 µM	7 % of HIV pol 589-597 at 100 µM	4.35 µM	1.1 ratio to HIV pol 589-597	–
LLVGILHLV [CD19-B1]	40 % of HIV pol 589-597 at 100 µM	93 % of HIV pol 589-597 at 100 µM	–	8 % of HIV pol 589-597 at 100 µM	3.7 µM	0.7 ratio to HIV pol 589-597	–
LIFEHPERV [CD22-B12]	–	–	–	–	–	–	binds
LLFGAPALL (also called TNFRSF13-H1) [TNFRSF13C-H1]	17 % of HIV pol 589-597 at 100 µM	92 % of HIV pol 589-597 at 100 µM	0 % of HIV pol 589-597 at 100 µM	2 % of HIV pol 589-597 at 100 µM	11.8 µM	3 ratio to HIV pol 589-597	–
TLLFLTPML [CD19-B2]	114 % of HIV pol 589-597 at 100 µM	–	12 % of HIV pol 589-597 at 100 µM	41 % of HIV pol 589-597 at 100 µM	0.38 µM	1 ratio to HIV pol 589-597	–
ILIPAGIYL [MS4A1-B3]	87.8 % of HIV pol 589-597 at 100 µM	88.8 % of HIV pol 589-597 at 100 µM	1.9 % of HIV pol 589-597 at 100 µM	17.8 % of HIV pol 589-597 at 100 µM	0.7 µM	0.1 ratio to HIV pol 589-597	–
WVFEHPETL [CD22-H1]	71 % of HIV pol 589-597 at 100 µM	158 % of HIV pol 589-597 at 100 µM	2 % of HIV pol 589-597 at 100 µM	10 % of HIV pol 589-597 at 100 µM	1.97 µM	5.3 ratio to HIV pol 589-597	–
GMAFVPLLL (also called CD37-B11i) [CD37-B11]	48.9 % of HIV pol 589-597 at 100 µM	57.8 % of HIV pol 589-597 at 100 µM	0 % of HIV pol 589-597 at 100 µM	1.6 % of HIV pol 589-597 at 100 µM	2.3 µM	3 ratio to HIV pol 589-597	–
SLVGILHII [CD19-B11]	30.5 % of HIV pol 589-597 at 100 µM	108 % of HIV pol 589-597 at 100 µM	0 % of HIV pol 589-597 at 100 µM	5.2 % of HIV pol 589-597 at 100 µM	5.97 µM	0.8 ratio to HIV pol 589-597	–
LQMGGFYLL [CD19-B7]	4.5 % of HIV pol 589-597 at 100 µM	31.8 % of HIV pol 589-597 at 100 µM	6 % of HIV pol 589-597 at 100 µM	4.8 % of HIV pol 589-597 at 100 µM	49.6 µM	6.8 ratio to HIV pol 589-597	–
FLAFVPLQL (also called CD37-B1i) [CD37-B1]	106 % of HIV pol 589-597 at 100 µM	157 % of HIV pol 589-597 at 100 µM	5 % of HIV pol 589-597 at 100 µM	35 % of HIV pol 589-597 at 100 µM	0.65 µM	1.6 ratio to HIV pol 589-597	–
